Assay results taken from publication PMC11336900, “Nanobody‐Engineered Biohybrid Bacteria Targeting Gastrointestinal Cancers Induce Robust STING‐Mediated Anti‐Tumor Immunity” (Advanced Science, 2024).
Residue numbers refer to the chain shown, from its start.

Tests used:
[1] = target: T1, murine CDH17 protein fragment, domain 1–3 (Mus musculus, UniProt Q9R100); test: SPR; affinity determination of nanobodies against human and murine CDH17 proteins; settings: both partners purified
T1 construct: cadherin 17 (CDH17), mouse, domain 1–3; also called mouse CDH17; source: E. coli BL21(DE3), purified (Ni-NTA, gel filtration)
T1 sequence (Q9R100 whole entry, looked up, the tested form may be a part): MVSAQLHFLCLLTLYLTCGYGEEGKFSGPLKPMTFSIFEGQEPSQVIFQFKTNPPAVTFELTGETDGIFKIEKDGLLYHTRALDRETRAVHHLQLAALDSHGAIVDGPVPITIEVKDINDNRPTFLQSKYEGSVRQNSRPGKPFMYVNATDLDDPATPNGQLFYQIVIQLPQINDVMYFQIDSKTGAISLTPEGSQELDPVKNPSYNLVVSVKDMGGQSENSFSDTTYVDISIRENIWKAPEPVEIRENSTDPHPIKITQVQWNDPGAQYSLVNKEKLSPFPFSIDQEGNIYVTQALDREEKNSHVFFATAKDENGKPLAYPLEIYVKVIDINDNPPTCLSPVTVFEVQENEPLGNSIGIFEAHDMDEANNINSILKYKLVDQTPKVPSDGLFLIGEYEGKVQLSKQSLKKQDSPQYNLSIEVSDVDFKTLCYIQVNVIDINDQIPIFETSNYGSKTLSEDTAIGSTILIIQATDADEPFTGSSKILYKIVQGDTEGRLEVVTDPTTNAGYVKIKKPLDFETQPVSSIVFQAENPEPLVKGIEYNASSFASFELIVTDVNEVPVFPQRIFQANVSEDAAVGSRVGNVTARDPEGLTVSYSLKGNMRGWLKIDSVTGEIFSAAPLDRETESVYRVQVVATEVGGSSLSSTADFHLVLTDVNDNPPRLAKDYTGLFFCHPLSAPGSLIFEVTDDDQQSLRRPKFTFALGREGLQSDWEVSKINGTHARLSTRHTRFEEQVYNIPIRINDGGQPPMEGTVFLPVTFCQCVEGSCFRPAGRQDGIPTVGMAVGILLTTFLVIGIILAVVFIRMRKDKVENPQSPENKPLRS

[2] = target: T2, human CDH17 protein fragment, domain 1–3 (Homo sapiens, UniProt Q12864); test: as above; settings: both partners purified
T2 construct: cadherin 17 (CDH17), human, domain 1–3; also called cadherin 17; CDH17 antigen; source: E. coli BL21(DE3), purified (Ni-NTA, gel filtration)
T2 sequence (Q12864 whole entry, looked up, the tested form may be a part): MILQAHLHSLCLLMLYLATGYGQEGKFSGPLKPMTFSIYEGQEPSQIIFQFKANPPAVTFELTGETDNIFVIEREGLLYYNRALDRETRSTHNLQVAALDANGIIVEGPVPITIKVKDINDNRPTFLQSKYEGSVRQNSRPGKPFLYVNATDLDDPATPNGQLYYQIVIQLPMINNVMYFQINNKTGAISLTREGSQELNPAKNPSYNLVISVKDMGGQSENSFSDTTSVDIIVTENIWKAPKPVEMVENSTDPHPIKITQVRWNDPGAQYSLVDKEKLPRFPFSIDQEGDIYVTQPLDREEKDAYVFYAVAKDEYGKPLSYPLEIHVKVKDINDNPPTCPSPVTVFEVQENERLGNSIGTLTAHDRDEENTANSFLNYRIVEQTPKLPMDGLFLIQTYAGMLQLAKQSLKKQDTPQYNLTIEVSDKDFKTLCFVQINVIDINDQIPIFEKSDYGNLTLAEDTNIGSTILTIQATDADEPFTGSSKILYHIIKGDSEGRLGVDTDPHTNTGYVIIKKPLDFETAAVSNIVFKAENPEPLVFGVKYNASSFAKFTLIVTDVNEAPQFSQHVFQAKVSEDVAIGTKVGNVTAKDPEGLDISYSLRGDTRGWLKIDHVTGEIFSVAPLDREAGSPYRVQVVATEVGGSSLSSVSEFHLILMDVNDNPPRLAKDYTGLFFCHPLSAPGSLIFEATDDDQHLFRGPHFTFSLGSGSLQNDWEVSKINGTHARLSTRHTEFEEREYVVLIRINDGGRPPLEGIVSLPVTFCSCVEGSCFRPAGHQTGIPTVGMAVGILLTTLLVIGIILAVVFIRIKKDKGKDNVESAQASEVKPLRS

B1: CDH17 nanobody Nb535 (VHH)
VHH: AVQLVESGGGLVQPGGSLRLSCAASGRTFSSNGMGWFRQAPGKGREFVAAISWNAGTTLYTDSVKGRFTISRDNAKNTVYLQMNSLKPEDTAIYYCAAREYYGGSYYPSREYEYGYWGQGTQVTVSS
notes: source: prokaryotic vector pColdII (TAKARA), purified (Ni-NTA); not shown: HA, C-terminal, kept
Kd [1]: 109 nM | Kd [2]: 60.1 nM

B2: CDH17 nanobody Nb289 (VHH)
VHH: B1 VHH with P14A, G16D, K43T
notes: as the VHH of m5 (A1) with one amino acid difference at position 44; also called Nb289 nanobody; source: prokaryotic vector pColdII (TAKARA), purified (Ni-NTA); not shown: HA, C-terminal, kept
Kd [1]: 32.5 nM | Kd [2]: 20.1 nM
